Source: publication PMC9426574

Legend:
[1] = molecular target: HRP-labeled human S100A7 (UniProt P31151); assay: ELISA; settings: His-tagged TdfJ on NTA-coated 96-well plate; absorbance at 450 nm; parent: est. 100; read off a plot
[2] = molecular target: transferrin (Homo sapiens) (UniProt P02787); settings: cited from earlier work
[3] = molecular target: His-tagged TdfJ K261P/R262P (purified) (Neisseria gonorrhoeae); assay: SPR; His-tagged TdfJ (89 μg/mL) immobilised on Ni-NTA sensor chip, free NTA blocked with His-tagged streptavidin; S100A7 injected at 1, 10, 50, 100, 500 nM, 20 μL/min; PBS pH 8.0; OpenSPR XT; steady-state, single-site fit (EC50 analysis setting)
[4] = molecular target: His-tagged wild-type TdfJ (purified) (Neisseria gonorrhoeae); assay: as above

Sequence of UniProt P02787 (P02787 20-698): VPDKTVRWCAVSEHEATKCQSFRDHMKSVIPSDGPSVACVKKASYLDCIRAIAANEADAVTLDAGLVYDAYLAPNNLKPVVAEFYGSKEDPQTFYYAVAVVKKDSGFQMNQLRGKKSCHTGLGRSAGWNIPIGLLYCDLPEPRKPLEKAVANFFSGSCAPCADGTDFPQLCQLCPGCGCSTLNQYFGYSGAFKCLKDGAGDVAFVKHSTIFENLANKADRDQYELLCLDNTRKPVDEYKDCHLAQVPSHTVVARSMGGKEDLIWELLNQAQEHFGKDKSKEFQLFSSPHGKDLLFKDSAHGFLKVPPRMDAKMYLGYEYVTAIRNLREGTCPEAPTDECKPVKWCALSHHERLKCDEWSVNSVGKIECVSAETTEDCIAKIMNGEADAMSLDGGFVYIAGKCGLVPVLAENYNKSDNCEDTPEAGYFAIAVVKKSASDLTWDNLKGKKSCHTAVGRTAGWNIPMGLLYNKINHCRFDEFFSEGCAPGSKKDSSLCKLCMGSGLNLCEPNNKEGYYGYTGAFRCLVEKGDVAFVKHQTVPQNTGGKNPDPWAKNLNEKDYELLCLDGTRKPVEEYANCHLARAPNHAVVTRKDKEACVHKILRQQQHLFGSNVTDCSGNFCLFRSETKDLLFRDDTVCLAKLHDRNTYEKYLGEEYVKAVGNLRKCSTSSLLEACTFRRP

His-tagged wild-type TdfJ (purified) K261P; R262P
percent of parent (% of Wildtype) [1]: 3

His-tagged wild-type TdfJ (purified) R262P
percent of parent (% of Wildtype) [1]: 79

His-tagged wild-type TdfJ (purified) Q265P; L266P
percent of parent (% of Wildtype) [1]: 20

TbpA (from UniProt Q01996)
Kd [2]: 10 nM

His-tagged wild-type TdfJ (purified) Q265P
percent of parent (% of Wildtype) [1]: 80

Human S100A7 (from UniProt P31151 1-101) (natural protein)
SPR response at equilibrium at 500 nM S100A7 [3]: 325 RU
Kd [4]: 41 nM
SPR response at 1 nM S100A7 [4]: 220 RU
SPR response at 500 nM S100A7 [4]: 900 RU

His-tagged wild-type TdfJ (purified) K256E
percent of parent (% of Wildtype) [1]: 87

His-tagged wild-type TdfJ (purified) L266P
percent of parent (% of Wildtype) [1]: 74
